The text below walks through data of publication PMC4482077.

Some results are limits rather than exact numbers.

Assay in all cases: AUC
The target of assay [1] is LiaR^D50E (phosphomimetic mutant of E. faecalis S613 LiaR) (Enterococcus faecalis S613).
For assay [2], the target named is LiaR^(DBD)D191N, isolated DNA binding domain of E. faecalis S613 LiaR (residues 140-206) with D191N (Enterococcus faecalis S613).
In assay [3] the target is LiaR^(DBD), isolated DNA binding domain of wild-type E. faecalis S613 LiaR (residues 140-206) (Enterococcus faecalis S613).
The target of assay [4] is E. faecalis S613 LiaR (wild type, full length) (Enterococcus faecalis S613).
In assay [5] the target is LiaR^D191N (adaptive mutant of E. faecalis S613 LiaR) (Enterococcus faecalis S613).

Substance “LiaR^D50E (phosphomimetic mutant of E. faecalis S613 LiaR) (natural protein)” displayed a stoichiometry N in assay [1] of 4. As to “LiaR^(DBD)D191N, isolated DNA binding domain of E. faecalis S613 LiaR (residues 140-206) with D191N (domain or fragment)”, in assay [2], the Kd is less than 40 nM and the stoichiometry N came out at 2. Regarding “LiaR^(DBD), isolated DNA binding domain of wild-type E. faecalis S613 LiaR (residues 140-206) (domain or fragment)”, in assay [3], the Kd was found to be 2000 nM and the stoichiometry N turned out to be 2. For “E. faecalis S613 LiaR (wild type, full length) (natural protein)”, in assay [4], the Kd was 24000 nM and the stoichiometry N came to 4. In assay [5], “LiaR^D191N (adaptive mutant of E. faecalis S613 LiaR) (natural protein)” gave a Kd of less than 60 nM and a stoichiometry N of 4.

As usually defined, the stoichiometry N is the number of molecules, sites or subunits per partner or assembly. As a reminder, the Kd is the constant that tells how readily two partners part at equilibrium.
